Measured values published in patent US20030100060A1.
Numbering of substitutions follows the chain as printed.

B1: MA116-6 ScFv antibody (scFv)
scFv: MAQVQLQESGPELVKPGASVKISCKASGYTFTDYHVHWVKGKPGQGLEWIGMTYPGFDDTNYSETFKGKATLTVDTSSNTVYMQLSSLTSEDTAVYFCARGVGLDYWGQGTTVTVSSGGGGSGGGGSGGGGSDSSSLVSKFVSTSIGDRIRITCKASQDVDTAVGWYQQRPGQSPKLLIFWSSTRHTGVPDRFTGSGSGTDFTLTISNVQSEDLADYFCHQYSSYPFTFGSGTKLEIKRAAAGAPVPYPDPLEPRAA
B2: A116 ScFv antibody (recombinant single chain variable fragment cloned from hybridoma 1A4A1) (scFv)
scFv: B1 scFv with D59N, S77F, N79T, A94V, Y225H
B3: MA116-15 ScFv antibody (mutagenized, repaired A116) (scFv)
scFv: MAQVQLQESGPELVKPGASVKISCKASGYTFTDYHVHWVKGKPGQGLEWIGMTYPGFDNTNYSETFKGKATLTVDTSSNTVYMQLSSLTSEDTAVYFCARGVGLDYWGQGTTVTVSSGGGGSGGGGSGGGGSDIELTQSPNSLSTSIGDRIRITCKASQDVDTAVGWYQQRPGQSPKLLIFWSSTRHTGVPDRFTGSGSGTDFTLTISNVQSEDLADYFCHQYSSYPFTFGSGTKLEIKRAAAGAPVPYPDPLEPRAA
B4: MA116-4 ScFv antibody (scFv)
scFv: B3 scFv with D133A, I134S, E135S, L136S, T137L, Q138S, S139L, P140S, E213D

Key:
[1] = molecular target: Inactivated Venezuelan equine encephalitis (VEE) whole virus antigen, strain TC-83 (Venezuelan equine encephalitis virus, strain TC-83) (UniProt P05674); test: ELISA, HB2151 whole cell lysate, wells with and without VEE whole virus antigen
[2] = molecular target: Inactivated Venezuelan equine encephalitis (VEE) whole virus antigen, strain TC-83 (Venezuelan equine encephalitis virus, strain TC-83) (UniProt P05674)
[3] = molecular target: Inactivated Venezuelan equine encephalitis (VEE) whole virus antigen, strain TC-83 (Venezuelan equine encephalitis virus, strain TC-83) (UniProt P05674); remark: listed apart in the source
[4] = molecular target: Inactivated Venezuelan equine encephalitis (VEE) whole virus antigen, strain TC-83 (Venezuelan equine encephalitis virus, strain TC-83) (UniProt P05674); test: ELISA of whole cell lysates on VEE antigen (FIG. 10)
[5] = molecular target: Inactivated Venezuelan equine encephalitis (VEE) whole virus antigen, strain TC-83 (Venezuelan equine encephalitis virus, strain TC-83) (UniProt P05674); test: ELISA, […], in triplicate, […]

Sequence of UniProt P05674 (P05674 335-757 limits assumed): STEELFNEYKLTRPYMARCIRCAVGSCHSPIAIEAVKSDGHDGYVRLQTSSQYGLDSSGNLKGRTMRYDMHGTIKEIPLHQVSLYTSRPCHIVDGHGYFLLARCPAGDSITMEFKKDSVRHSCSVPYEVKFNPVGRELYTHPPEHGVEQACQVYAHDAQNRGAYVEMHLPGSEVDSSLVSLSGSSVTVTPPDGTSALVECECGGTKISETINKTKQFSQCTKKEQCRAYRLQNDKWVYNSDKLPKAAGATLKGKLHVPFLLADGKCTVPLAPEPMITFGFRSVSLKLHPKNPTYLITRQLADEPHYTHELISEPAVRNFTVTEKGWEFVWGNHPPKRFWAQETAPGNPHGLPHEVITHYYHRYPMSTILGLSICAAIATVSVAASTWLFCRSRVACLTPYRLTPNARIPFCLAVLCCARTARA

Binder	fold retention, with VEE antigen over without [1]	fold absorbance over the HB2151 negative control lysate [2]	fold absorbance, wells with VEE antigen over wells without [3]	fold ELISA reactivity against the parental A116 clone [4]	fold ELISA reactivity against the original A116 clone [5]
B1	> 2.5 fold				
B2		4 fold	> 2 fold		
B3	> 2.5 fold			> 4 fold	4 fold
B4	> 2.5 fold				
